From paper PMC6985287, “Novel Immunomodulatory Proteins Generated via Directed Evolution of Variant IgSF Domains” (Frontiers in Immunology, 2019) come the findings set out here.

This assay has as its target T1, wild type human ICOSL-Fc fusion protein (human, UniProt O75144 19-256).
T1 construct: ICOS ligand (ICOSL), human, extracellular domain (ECD); secreted with the human immunoglobulin VH5-51 signal peptide; Fc dimer; also called WT ICOSL; WT ICOSL-Fc; source: Expi293F, transient expression, purified (Protein A, SEC); not shown: Fc (IgG1, lacking effector function), C-terminal, kept
T1 sequence (looked up): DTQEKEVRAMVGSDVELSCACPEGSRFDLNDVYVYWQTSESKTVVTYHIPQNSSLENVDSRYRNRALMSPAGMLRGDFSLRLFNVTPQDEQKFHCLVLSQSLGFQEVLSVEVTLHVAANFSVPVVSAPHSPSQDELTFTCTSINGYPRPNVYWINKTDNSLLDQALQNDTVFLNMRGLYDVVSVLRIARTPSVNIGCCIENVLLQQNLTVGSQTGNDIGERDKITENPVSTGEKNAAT
The assay is described as follows: BLI; ForteBio Octet QKe; receptor-Fc loaded on the sensor (Protein A sensors in the methods, anti-human capture AHC sensors in the table's footnote); ICOSL-Fc proteins in four-point titrations (100, 50, 25, 12.5 nM); global 1:1 fit; both partners Fc dimers, KD includes avidity. The note with it: both partners purified.

B1: human recombinant ICOS-Fc fusion protein (Fc fusion, UniProt Q9Y6W8 21-140, looked up)
chain: EINGSANYEMFIFHNGGVQILCKYPDIVQQFKMQLLKGGQILCDLTKTKGSGNTVSIKSLKFCHSQLSNNSVSFFLYNLDHSHANYYFCNLSIFDPPPFKVTLTGGYLHIYESQLCCQLK
notes: Inducible Costimulator (ICOS), human, soluble Fc fusion; also called soluble ICOS-Fc; source: bought: R&D Systems
The molecule B1 gave a Kd of 0.883 nM.
